# Target: SARS-CoV spike on S-pseudotyped MLV virions (SARS-CoV)
# Assay: cell-based or functional assay
substance,measurement,value
COVA1-16 (antibody),"percent neutralization of pseudovirus at 200 µg, antibody alone",28%

# From patent US20240376180A1
